Results as given in PMC11721787 (Science translational medicine, 2023).

Legend:
[1] = molecular target: PUUV Gn/Gc on virus-like particles (VLPs) (Puumala orthohantavirus, strain of the …, UniProt A0A0B4U5I0); test: ELISA
PUUV Gc ectodomain = PUUV Gc ectodomain (Puumala virus, UniProt P27312); test: crystal structure
PUUV Gn^H (head of Gn) = PUUV Gn^H (head of Gn) (Puumala virus, UniProt P27312); test: crystal structure
PUUV Gn^H (head of Gn), sequence (P27312 20-381): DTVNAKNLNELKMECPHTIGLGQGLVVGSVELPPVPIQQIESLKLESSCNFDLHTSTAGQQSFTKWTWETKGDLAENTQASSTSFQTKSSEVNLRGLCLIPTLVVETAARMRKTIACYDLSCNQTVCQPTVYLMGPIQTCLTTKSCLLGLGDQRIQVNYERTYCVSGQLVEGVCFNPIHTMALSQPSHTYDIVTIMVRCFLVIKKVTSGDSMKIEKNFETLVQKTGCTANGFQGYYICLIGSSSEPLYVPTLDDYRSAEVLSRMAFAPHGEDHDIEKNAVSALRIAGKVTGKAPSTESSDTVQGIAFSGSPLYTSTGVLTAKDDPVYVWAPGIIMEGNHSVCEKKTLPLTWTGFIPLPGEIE

PUUV Gc ectodomain, sequence (P27312 659-1093): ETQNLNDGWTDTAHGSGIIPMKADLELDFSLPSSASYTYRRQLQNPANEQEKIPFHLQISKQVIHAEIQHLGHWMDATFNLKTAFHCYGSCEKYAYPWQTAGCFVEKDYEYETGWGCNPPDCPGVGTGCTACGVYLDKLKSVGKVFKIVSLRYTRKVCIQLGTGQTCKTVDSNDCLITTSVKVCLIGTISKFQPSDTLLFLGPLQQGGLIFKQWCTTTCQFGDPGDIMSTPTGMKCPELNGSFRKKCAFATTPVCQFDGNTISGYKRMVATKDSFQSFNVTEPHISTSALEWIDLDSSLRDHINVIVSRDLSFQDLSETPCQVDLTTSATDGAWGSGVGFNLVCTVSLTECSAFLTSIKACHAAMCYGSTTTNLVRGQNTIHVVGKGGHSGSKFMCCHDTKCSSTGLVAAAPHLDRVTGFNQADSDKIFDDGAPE

Binder | binding result [1] | binding result (PUUV Gc ectodomain) | binding result (PUUV Gn^H (head of Gn))
ADI-42898 monovalent antibody-binding fragment (Fab) (Fab, V domains shown) VH: QVQLVESGGGVVQPGRSLRLSCAASGFTFSSYAMHWVRQAPGKGLEWVAVTWFDVSKKDYADSVKGRFTISRDNSKNTLYLQMNSLRAEDTAVYYCARNLIRYSGSYFPVHGMDVWGQGTTVTVSS VL: DIVMTQSPLSLPVTPGEPASISCRSSQSLLHTYGYNCLDWYLQRPGQSPQLLISLGSYRASGVPDRFSGSGSGTDFTLKISRVEAEDVGVYYCMQALHPFTFGGGTKVEIK | binds |  | 
ADI-42898 (monoclonal antibody, IgG) (antibody, V domains shown) VH: QVQLVESGGGVVQPGRSLRLSCAASGFTFSSYAMHWVRQAPGKGLEWVAVTWFDVSKKDYADSVKGRFTISRDNSKNTLYLQMNSLRAEDTAVYYCARNLIRYSGSYFPVHGMDVWGQGTTVTVSS VL: DIVMTQSPLSLPVTPGEPASISCRSSQSLLHTYGYNCLDWYLQRPGQSPQLLISLGSYRASGVPDRFSGSGSGTDFTLKISRVEAEDVGVYYCMQALHPFTFGGGTKVEIK | binds |  | 
ADI-42898 single-chain, variable domain fragment (scFv) (scFv, V domains shown) VH: QVQLVESGGGVVQPGRSLRLSCAASGFTFSSYAMHWVRQAPGKGLEWVAVTWFDVSKKDYADSVKGRFTISRDNSKNTLYLQMNSLRAEDTAVYYCARNLIRYSGSYFPVHGMDVWGQGTTVTVSS VL: DIVMTQSPLSLPVTPGEPASISCRSSQSLLHTYGYNCLDWYLQRPGQSPQLLISLGSYRASGVPDRFSGSGSGTDFTLKISRVEAEDVGVYYCMQALHPFTFGGGTKVEIK |  | binds | binds
